Source: doi:10.1101/2023.03.02.528060

Experiments:
[1] = biological target: Rous sarcoma virus integrase (1-286) R244A (Rous sarcoma virus (Prague A)); assay: SEC
[2] = biological target: Rous sarcoma virus integrase, wt IN (1-278) (Rous sarcoma virus (Prague A)); assay: cryo-EM structure
[3] = biological target: Rous sarcoma virus integrase (1-286) R244E (Rous sarcoma virus (Prague A)); assay: SEC
[4] = biological target: Rous sarcoma virus integrase (1-286) Y246A (Rous sarcoma virus (Prague A)); assay: SEC
[5] = biological target: Rous sarcoma virus integrase, wt full-length IN (1-286) (Rous sarcoma virus (Prague A)); assay: SEC

Rous sarcoma virus integrase (1-286) R244A (enzyme)
stoichiometry N [1]: 2

Rous sarcoma virus integrase, wt IN (1-278) (enzyme)
stoichiometry N [2]: 8

Rous sarcoma virus integrase (1-286) R244E (enzyme)
stoichiometry N [3]: 2

Rous sarcoma virus integrase (1-286) Y246A (enzyme)
stoichiometry N [4]: 2

Rous sarcoma virus integrase, wt full-length IN (1-286) (enzyme)
stoichiometry N [5]: 2
